Patent US20230287113A1 (NANTBIO, published 2023)

T1: human TIM-3 (T-cell immunoglobulin mucin receptor 3) (human, UniProt Q8TDQ0 22-202, limits assumed)
T1 sequence (looked up): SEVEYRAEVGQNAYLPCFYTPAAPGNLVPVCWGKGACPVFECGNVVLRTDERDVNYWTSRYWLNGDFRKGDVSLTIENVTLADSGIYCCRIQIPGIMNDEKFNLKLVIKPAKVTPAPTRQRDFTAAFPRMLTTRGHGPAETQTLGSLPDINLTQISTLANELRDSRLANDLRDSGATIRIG


Assays:
[1] = molecular target: T1, human TIM-3 (T-cell immunoglobulin …); assay: ratio of KD at 37 C to KD at 25 C, SPR or Octet
Source text: (§1) In one typical example, the inventors prepared antibodies using the above HC and LC sequences with matching preceding numbers and tested the so prepared antibodies for TIM3 binding. […] All values are ×10⁻⁹M. anti-TIM-3 IgG1 antibodies were captured on the chip surface using anti-human Fc antibody (SPR) or AHC sensor (Octet), and human TIM-3 was the analyte.

[2] = molecular target: T1, human TIM-3 (T-cell immunoglobulin …); assay: SPR (Pioneer FE) or Octet (Red96e), IgG1 captured by anti-human Fc / AHC sensor, human TIM-3 analyte, 37 C
Source text: as §1

[3] = molecular target: T1, human TIM-3 (T-cell immunoglobulin …); assay: SPR (Pioneer FE) or Octet (Red96e), IgG1 captured by anti-human Fc / AHC sensor, human TIM-3 analyte, 25 C
Source text: as §1

Binder | KD difference between 25° C. and 37° C. (fold) [1] [fold] | Kd [2] [nM] | Kd [3] [nM]
anti-TIM-3 IgG1 antibody 64-31 (antibody, V domains shown, human IgG1; The printed HC begins with M before EVQL; also called aTIM-3 IgG1 64-31) VH: EVQLVESGGGLVQPGGSLRLSCAASGFTFSAYAMHWVRQAPGKGLEWVSAINGNGGRTYYADSVKGRFTISRDNSKNTLYLQMNSLRAEDTAVYYCARDLTRTVPFAFDVWGQGTLVTVSS VL: not shown | 3.51 | 36.5 | 10.4
anti-TIM-3 IgG1 antibody 66-6 (antibody, V domains shown, human IgG1; The printed HC begins with M before EVQL; also called aTIM-3 IgG1 66-6) VH: EVQLVESGGGLVQPGGSLRLSCAASGFTFSKYAMHWVRQAPGKGLEWVSAISGSGGSTYYADSVKGRFTISRDNSKNTLYLQMNSLRAEDTAVYYCARDLDYRFSGFDVWGQGTLVTVSS VL: DIQMTQSPSSLSASVGDRVTITCQASQDISNYLNWYQQKPGKAPKLLIYDASNLETGVPSRFSGSGSGTDFTFTISSLQPEDIATYYCQQFAAIPLTFGQGTKVEIKR | 4.15 | 7.01 | 1.69
anti-TIM-3 IgG1 antibody 64-39 (antibody, V domains shown, human IgG1; The printed HC begins with M before EVQL; also called aTIM-3 IgG1 64-39) VH: EVQLVESGGGLVQPGGSLRLSCAASGFTFSRYAMHWVRQAPGKGLEWVSGISGSGGGTYYADSVKGRFTISRDNSKNTLYLQMNSLRAEDTAVYYCARDLDYRVSGFDVWGQGTLVTVSS VL: not shown | 4.18 | 6.39 | 1.53

Binders with a lower Kd [2], results first:

KD difference between 25° C. and 37° C. (fold) [1] [fold] | Kd [2] [nM] | Kd [3] [nM] | Binder
7.61 | 5.4 | 0.71 | anti-TIM-3 IgG1 antibody 64-15 (antibody, V domains shown, human IgG1; also called aTIM-3 IgG1 64-15) VH: EVQLVESGGGLVQPGGSLRLSCAASGFTFSSYYMHWVRQAPGKGLEWVSGISGSGGSTYYADSVKGRFTISRDNSKNTLYLQMNSLRAEDTAVYYCARGRGAWPFTRVVAFDVWGQGTLVTVSS VL: not shown
5.43 | 2.5 | 0.46 | anti-TIM-3 IgG1 antibody 64-6 (antibody, V domains shown, human IgG1; also called aTIM-3 IgG1 64-6) VH: EVQLVESGGGLVQPGGSLRLSCAASGFTFSRYAMHWVRQAPGKGLEWVSAISGSGGYTYYADSVKGRFTISRDNSKNTLYLQMNSLRAEDTAVYYCARDRHWVLSAFDVWGQGTLVTVSS VL: not shown
2.36 | 0.92 | 0.39 | anti-TIM-3 IgG1 antibody 64-32 (antibody, V domains shown, human IgG1; The printed HC begins with M before EVQL; also called aTIM-3 IgG1 64-32) VH: EVQLVESGGGLVQPGGSLRLSCAASGFTFSKYAMHWVRQAPGKGLEWVSAISGSGGYTYYADSVKGRFTISRDNSKNTLYLQMNSLRAEDTAVYYCARDLDFRIVGFDVWGQGTLVTVSS VL: DIQMTQSPSSLSASVGDRVTITCQASQDISNYLNWYQQKPGKAPKLLIYDASNLETGVPSRFSGSGSGTDFTFTISSLQPEDIATYYCQQFNTVPLTFGQGTKVEIKR
